Assay results as given in paper PMC6028546, “Control of mitotic chromosome condensation by the fission yeast transcription factor Zas1”.
One block for each molecule: values may come before it.

What was measured:
[1] = biological target: Zas1 (recombinant, from the short zas1 cDNA ORF) (S. pombe); assay: SEC-MALS; analytical SEC coupled to multiangle light scattering of purified Zas1; two independent chromatography runs
[2] = biological target: T1, Zas1 (short cDNA ORF, two zinc fingers) (Schizosaccharomyces pombe, UniProt Q9UTS5-2 1-845); assay: EMSA; 20 uM ZnCl2, 5 mM MgCl2; EMSA: 10 mM Tris-HCl pH 8.0, 125 mM NaCl, 5 mM MgCl2, 20 uM ZnCl2; 400 nM DNA, 0/200/400/800 nM Zas1; 90 min on ice; 1.8% agarose, Tris-acetate pH 8.7, 6 C; conditions: protein: recombinant; chain copies: 2; label: 5' 6-FAM on strand 1; blunt
T1 sequence: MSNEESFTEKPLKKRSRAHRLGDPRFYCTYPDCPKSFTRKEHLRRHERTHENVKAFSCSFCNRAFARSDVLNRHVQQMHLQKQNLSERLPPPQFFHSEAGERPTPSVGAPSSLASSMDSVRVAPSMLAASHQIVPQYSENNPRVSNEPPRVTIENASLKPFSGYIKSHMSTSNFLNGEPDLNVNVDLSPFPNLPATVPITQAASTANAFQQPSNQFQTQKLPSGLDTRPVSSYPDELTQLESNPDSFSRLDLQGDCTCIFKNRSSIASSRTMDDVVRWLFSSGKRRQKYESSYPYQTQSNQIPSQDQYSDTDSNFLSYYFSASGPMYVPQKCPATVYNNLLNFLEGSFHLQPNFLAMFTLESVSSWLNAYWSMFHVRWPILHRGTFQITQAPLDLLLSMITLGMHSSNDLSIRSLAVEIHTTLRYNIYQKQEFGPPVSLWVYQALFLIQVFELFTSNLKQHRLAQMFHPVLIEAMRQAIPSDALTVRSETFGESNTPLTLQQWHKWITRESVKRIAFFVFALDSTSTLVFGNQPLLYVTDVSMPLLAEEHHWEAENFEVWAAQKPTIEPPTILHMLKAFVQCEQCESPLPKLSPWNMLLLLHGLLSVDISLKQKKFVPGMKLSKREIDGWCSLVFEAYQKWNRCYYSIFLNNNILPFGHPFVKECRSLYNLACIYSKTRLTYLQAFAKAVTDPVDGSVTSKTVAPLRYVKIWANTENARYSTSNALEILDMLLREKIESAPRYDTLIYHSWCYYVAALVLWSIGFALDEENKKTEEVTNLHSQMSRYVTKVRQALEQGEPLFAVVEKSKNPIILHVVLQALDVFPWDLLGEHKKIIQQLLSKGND

- stoichiometry N [1]: 2
Molecule: Zas1 (recombinant, from the short zas1 cDNA ORF) (natural protein)

B1: Ppob1 (dsDNA)
DNA 1: AAAGCCCCCACGAAGGTCGTCTTTCCCCACATAGATTATT
DNA 2: AATAATCTATGTGGGGAAAGACGACCTTCGTGGGGGCTTT
- binding result [2]: binds

B2: Pcnd1 (dsDNA)
DNA 1: AATGGACCCCCACACAGGACATATAGGTGGGGTTATTGT
DNA 2: ACAATAACCCCACCTATATGTCCTGTGTGGGGGTCCATT
- binding result [2]: binds
